US11471494B2, “Microorganisms programmed to produce immune modulators and anti-cancer therapeutics in tumor cells” (Synlogic Operating Company, Inc., priority 2017, dated 2022)

Assays:
Settings in all cases: supernatant
anti-mSIRPα antibody = test: SIRPα/CD47 ELISA binding assay, detection by antibody
[1] = SIRPα/CD47 ELISA binding assay, control coatings
mCD47 = molecular target: T1, mCD47 (Mus musculus, UniProt Q61735); test: SIRPα/CD47 ELISA binding assay of supernatants
T1 sequence (Q61735 19-303): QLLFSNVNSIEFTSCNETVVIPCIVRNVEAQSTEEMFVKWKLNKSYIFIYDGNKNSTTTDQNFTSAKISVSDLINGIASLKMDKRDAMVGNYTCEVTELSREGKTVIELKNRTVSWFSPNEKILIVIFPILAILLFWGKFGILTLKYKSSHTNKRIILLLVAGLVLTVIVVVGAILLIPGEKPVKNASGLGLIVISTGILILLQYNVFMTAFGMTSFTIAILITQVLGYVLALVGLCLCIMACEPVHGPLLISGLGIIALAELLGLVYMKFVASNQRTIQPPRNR

B1: Secreted WT mSIRPα: wild type murine SIRPα secreted by engineered Nissle (SYN2996), in supernatant (protein)
chain: KELKVTQPEKSVSVAAGDSTVLNCTLTSLLPVGPIRWYRGVGPSRLLIYSFAGEYVPRIRNVSDTTKRNNMDFSIRISNVTPADAGIYYCVKFQKGSSEPDTEIQSGGGTEVYVLAKPSPPEVSGPADRGIPDQKVNFTCKSHGFSPRNITLKWFKDGQELHPLETTVNPSGKNVSYNISSTVRVVLNSMDVNSKVICEVAHITLDRSPLRGIANLSNFIRVSPTVKVTQQSPTSMNQVNLTCRAERFYPEDLQLIWLENGNVSRNDTPKNLTKNTDGTYNYTSLFLVNSSAHREDVVFTCQVKHDQQPAITRNHTVLGFAHSSDQGSMQTFPDNNATHNWN
modifications: left off: small tags and cut ends
ELISA signal, coating Anti-mSIRPα (anti-mSIRPα antibody): 0.829
ELISA signal, coating IgG [1]: 0.056
ELISA signal, coating PBS [1]: 0.059
ELISA signal, coating mCD47 (mCD47): 1.069
